# Laboratory results reported in patent US20240409629A1 (CHIA TAI TIANQING PHARMACEUTICAL GROUP, published 2024).
# Read-outs that look alike come from different tables or passages of the source.
# What was measured:
# human CLDN18.2 [1] = target: T1, human CLDN18.2 (human); assay: FACS, KATOIII cells (natural CLDN18.2)
# T1 construct: also called claudin18.2
# Protocol: (§1) Based on the FACS method, the binding activity of anti-CLDN18.2 antibodies for the cell line U2OS-CLDN18.2 overexpressing CLDN18.2 and the cell lines KATOIII (Cell Bank of the Chinese Academy of Sciences) and NUGC-4 (Cell Bank of the Chinese Academy of Sciences) naturally expressing CLDN18.2 was analyzed.
# (§2) The cell concentration was adjusted with PBS, and cells (U2OS-CLDN18.2, KATOIII, or NUGC-4 cells) were added to a 96-well plate at 3×10⁵ cells/well, then the test antibodies at different concentrations were added to each well of the 96-well plate, and the mixture was incubated at 4° C. for 60 min. […] The supernatant was discarded, the cells were washed 3 times with pre-cooled PBS buffer, PE-Goat Anti-Human IgG Fcγ (Jackson immunoresearch, Cat. No. 109-116-170) diluted at 1:200 was added at 100 μL/well, and the mixture was incubated at 4° C. for 30 min. Cells were washed 3 times with pre-cooled PBS buffer and resuspended in 100 μL of PBS buffer, and then the fluorescence signals were detected using a flow cytometer (Sartorius, iQUE3). The binding ability of the anti-CLDN18.2 antibodies for CLDN18.2 was measured by mean fluorescence intensity (MFI) of staining.
# human CLDN18.2 [2] = target: T1, human CLDN18.2; assay: FACS, NUGC-4 cells (natural CLDN18.2)
# Protocol: (§3) Based on the FACS method, the binding activity of anti-CLDN18.2 humanized antibodies for the cell lines KATOIII (Cell Bank of the Chinese Academy of Sciences) and NUGC-4 (Cell Bank of the Chinese Academy of Sciences) naturally expressing CLDN18.2 was analyzed. […] See Example 3 for the specific method.
# human CLDN18.2 [3] = target: T1, human CLDN18.2; assay: FACS, NUGC-4 cells (natural CLDN18.2); remark: listed apart in the source
# Protocol: as §3
# human CLDN18.2 [4] = target: T1, human CLDN18.2; assay: FACS, KATOIII cells (natural CLDN18.2); remark: listed apart in the source
# Protocol: as §3
# human CLDN18.2 [5] = target: T1, human CLDN18.2; assay: FACS, U2OS-CLDN18.2 cells
# Protocol: as §1, §2
# human CLDN18.2 [6] = target: T1, human CLDN18.2; assay: cell-based or functional assay
# human CLDN18.2 [7] = target: T1, human CLDN18.2; assay: FACS, KATOIII cells (natural CLDN18.2); remark: listed apart in the source
# Protocol: as §3
# human CLDN18.2 [8] = target: T1, human CLDN18.2; assay: cell-based or functional assay; remark: listed apart in the source
# human CLDN18.2 [9] = target: T1, human CLDN18.2; assay: cell-based or functional assay; remark: listed apart in the source
# human CLDN18.2 [10] = target: T1, human CLDN18.2; assay: cell-based or functional assay; remark: listed apart in the source
# human CLDN18.2 [11] = target: T1, human CLDN18.2; assay: cell-based or functional assay; remark: listed apart in the source
# human CLDN18.2 [12] = target: T1, human CLDN18.2; assay: FACS, NUGC-4 cells (natural CLDN18.2); remark: listed apart in the source
# Protocol: as §1, §2
# human CLDN18.2 [13] = target: T1, human CLDN18.2; assay: cell-based or functional assay; remark: listed apart in the source
# human CLDN18.2 [14] = target: T1, human CLDN18.2; assay: FACS, U2OS-CLDN18.2 cells; remark: listed apart in the source
# Protocol: as §1, §2
# human CLDN18.2 [15] = target: T1, human CLDN18.2; assay: FACS, NUGC-4 cells (natural CLDN18.2); remark: listed apart in the source
# Protocol: as §1, §2
# human CLDN18.1 [16] = target: T2, human CLDN18.1 (human, UniProt P56856 1-261); assay: FACS, U2OS-CLDN18.1 cells, antibody at 200 nM
# T2 construct: also called claudin18.1
# Protocol: (§4) Based on the FACS method, the binding activity of anti-CLDN18.2 antibodies for the cell line U2OS-CLDN18.1 overexpressing CLDN18.1 (SEQ ID NO: 2) was analyzed. The cell concentration was adjusted with PBS, and the U2OS-CLDN18.1 cells were added to a 96-well plate at 3×10⁵ cells/well, then the test antibodies were added to each well of the 96-well plate, the final concentration of the antibody was 200 nM, and the mixture was incubated at 4° C. for 60 min. The supernatant was discarded, the cells were washed 3 times with pre-cooled PBS buffer, PE-Goat Anti-Human IgG Fcγ (Jackson immunoresearch, Cat. No. 109-116-170) diluted at 1:200 was added at 100 μL/well, and the mixture was incubated at 4° C. for 30 min. Cells were washed 3 times with pre-cooled PBS buffer and resuspended in 100 μL of PBS buffer, and then the fluorescence signals were detected using a flow cytometer (Sartorius, iQUE3). The nonspecific binding of the anti-CLDN18.2 antibodies for U2OS-CLDN18.1 cells was measured by mean fluorescence intensity (MFI) of staining. The IgG1 isotype control antibody (prepared in-house, with the heavy and light chain amino acid sequences as set forth in SEQ ID NOs: 67 and 68 in the present disclosure) was used as the control, and 2-fold the IgG1 isotype control antibody was used as the benchmark, thus determining the presence or absence of nonspecific binding.
# human CLDN18.2 [17] = target: T1, human CLDN18.2; assay: FACS, U2OS-CLDN18.2 cells; remark: listed apart in the source
# Protocol: as §1, §2
# human CLDN18.2 [18] = target: T1, human CLDN18.2; assay: FACS, NUGC-4 cells (natural CLDN18.2); remark: listed apart in the source
# Protocol: as §1, §2
# human CLDN18.2 [19] = target: T1, human CLDN18.2; assay: FACS, KATOIII cells (natural CLDN18.2); remark: listed apart in the source
# Protocol: as §1, §2
# human CLDN18.1 [20] = target: T2, human CLDN18.1; assay: FACS, U2OS-CLDN18.1 cells; MFI against 2-fold the IgG1 isotype control
# Protocol: as §4
EC50 (human CLDN18.2 [1]) [nM],EC50 (human CLDN18.2 [5]) [nM],"ADCC EC50, PBMC effector cells, NUGC-4 target cells (human CLDN18.2 [8]) [nM]","CDC EC50, KATOIII target cells (human CLDN18.2 [9]) [nM]","CDC EC50, U2OS-CLDN18.2 target cells (human CLDN18.2 [9]) [nM]","ADCC EC50, Jurkat-CD16a v158-NFAT-luciferase effector cells, KATOIII target cells (human CLDN18.2 [11]) [nM]","ADCC EC50, Jurkat-CD16a v158-NFAT-luciferase effector cells, NUGC-4 target cells (human CLDN18.2 [11]) [nM]","ADCC EC50, Jurkat-CD16a v158-NFAT-luciferase effector cells, U2OS-CLDN18.2 target cells (human CLDN18.2 [11]) [nM]",EC50 (human CLDN18.2 [12]) [nM],MFI (human CLDN18.1 [16]),Binder,"ADCC Maximum killing (%), PBMC effector cells, NUGC-4 target cells (human CLDN18.2 [8]) [%]",other results
~26900,16.2,37.1,12.8,9.79,1.52,12,0.05,202,6220,"IMAB362 (antibody, human IgG1, kappa, V domains shown, Positive control, prepared in-house; also called Claudiximab; TMAB362 [sic]) VH: QVQLQQPGAELVRPGASVKLSCKASGYTFTSYWINWVKQRPGQGLEWIGNIYPSDSYTNYNQKFKDKATLTVDKSSSTAYMQLSSPTSEDSAVYYCTRSWRGNSFDYWGQGTTLTVSS VL: DIVMTQSPSSLTVTAGEKVTMSCKSSQSLLNSGNQKNYLTWYQQKPGQPPKLLIYWASTRESGVPDRFTGSGSGTDFTLTISSVQAEDLAVYYCQNDYSYPFTFGSGTKLEIKR",29.1,"EC50 (human CLDN18.2 [2]): 293 nM; EC50 (human CLDN18.2 [3]): 567 nM; EC50 (human CLDN18.2 [4]): 16.3 nM; ADCC EC50, Jurkat-CD16a v158-NFAT-luciferase effector cells, NIH-3T3-CLDN18.2 target cells (human CLDN18.2 [6]): 0.023 nM; ADCC EC50, Jurkat-CD16a v158-NFAT-luciferase effector cells, NUGC-4 target cells (human CLDN18.2 [6]): 0.856 nM; EC50 (human CLDN18.2 [7]): 38.2 nM; ADCC EC50, PBMC effector cells, KATOIII target cells (human CLDN18.2 [8]): ~0.123 nM; ADCC Maximum killing (%), PBMC effector cells, KATOIII target cells (human CLDN18.2 [8]): 20.7%; CDC EC50, NIH-3T3-CLDN18.2 target cells (human CLDN18.2 [10]): 24.4 nM; ADCC EC50, Jurkat-CD16a v158-NFAT-luciferase effector cells, KATOIII target cells (human CLDN18.2 [13]): 16.9 nM; ADCC EC50, Jurkat-CD16a v158-NFAT-luciferase effector cells, U2OS-CLDN18.2 target cells (human CLDN18.2 [13]): 0.014 nM; EC50 (human CLDN18.2 [14]): 16 nM; EC50 (human CLDN18.2 [15]): 1450 nM; EC50 (human CLDN18.2 [17]): 22.9 nM; EC50 (human CLDN18.2 [18]): 567 nM; EC50 (human CLDN18.2 [19]): 81.3 nM"
1.79,4.28,0.62,0.302,1.77,0.064,0.214,0.06,19.9,7630,"chimeric antibody xi34G6 (antibody, human IgG1, kappa, V domains shown, Mouse variable regions on human IgG1/kappa; defucosylated, expressed in FUT8-knockout CHO-S cells; also called chimeric 34G6) VH: QVQLKESGPDLVAPSQSLSITCTVSGFSLTSYGVHWVRQPPGKGLEWLVVIWSDGSTTYNSALKSRLSISKDNSKSQVFLKMNSLQTDDTAIYYCARHAYYGNSFDYWGQGTTLTVSS VL: DIVMTQSPSSLTVTAGEKVTMSCKSSQSLLNSGNQKSYLTWYQQKPGQPPKLLIYWASTRESGVPDRFTGSGSGTDFTLTISSVQAEDLAVYYCQNVYIFPLTFGAGTKLELKR",40.9,binding result (human CLDN18.1 [20]): no binding (tested: 200 nM)
